The values below come from paper PMC6900541 (Proceedings of the National Academy of Sciences of the …, 2019).

In this assay the target is T1, human PD-L2 ectodomain (human, UniProt Q9BQ51 20-220).
T1 sequence: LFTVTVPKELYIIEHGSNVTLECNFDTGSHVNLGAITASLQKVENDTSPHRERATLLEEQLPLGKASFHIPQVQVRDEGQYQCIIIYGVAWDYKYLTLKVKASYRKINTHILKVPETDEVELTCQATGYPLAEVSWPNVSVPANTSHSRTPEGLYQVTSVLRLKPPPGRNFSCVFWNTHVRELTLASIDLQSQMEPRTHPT
As to the kind of experiment: BLI.

B1: human PD-1 triple mutant (N74G T76P A132V), PD-1-Fc (Fc fusion)
chain: LDSPDRPWNPPTFSPALLVVTEGDNATFTCSFSNTSESFVLNWYRMSPSGQPDKLAAFPEDRSQPGQDCRFRVTQLPNGRDFHMSVVRARRNDSGTYLCGAISLAPKVQIKESLRAELRVTERRAEVPTAHPSPSPRPAGQFQTLV
In turn, B1 came in with a Kd of 2.6 nM.
